According to article PMC8230527, “Structural and Biochemical Characterization of a Dye-Decolorizing Peroxidase from Dictyostelium discoideum” (International Journal of Molecular Sciences, 2021):

Key:
Assay in all cases: purified protein
Format in all cases: biochemical, Dictyostelium discoideum
[1] = substrate: CCn1c(=NN=c2sc3cc(S(=O)(=O)O)ccc3n2CC)sc2cc(S(=O)(=O)O)ccc21; conditions: 1 mM H2O2, 50 mM sodium acetate pH 4.0, 150 mM NaCl, 25 °C
[2] = substrate: COc1ccc(CO)cc1OC; conditions: 1 mM H2O2, 50 mM sodium acetate pH 4.0, 150 mM NaCl, 25 °C
[3] = substrate: Nc1c(S(=O)(=O)O)cc(Nc2ccc(S(=O)(=O)O)c(Nc3nc(Cl)nc(Cl)n3)c2)c2c1C(=O)c1ccccc1C2=O; conditions: 1 mM H2O2, 50 mM sodium citrate pH 3.0, 150 mM NaCl, 25 °C

B1: Dictyostelium DyPA (Dictyostelium discoideum) (protein)
chain: MAQSTVLPMHCLYGIFLEGNLKIQKNDQEGLKKFKDNIKKFTLELDEIDKISPQSRIGGAICFSSDIWDTVTKKISKPKELKSVNTLSSYMPGTSQRDILIHIISDRMDTCFKLAQDTMRNFGEDQLDIKQEIHGFRRVEERDLTDFIDGTENPDGDELRTQYGLVAAGQPNEFGSYVFTQRYVHNLKKWYPEPLSVQQDTVGRTKKDSIEIPRDKRPITSHVSRTDLSENGKDLKIVRQSLPYGQITGEKGLMFIAYACSLHNIEKQLQSMFGQLDGKHDLLLKYTTPVTGSFYFAPSKKELLEL
notes: recombinant from E. coli Rosetta(DE3)pLysS, heme-reconstituted with hemin; homodimer
Km [1]: 4100 ± 400 µM
kcat [1]: 89.9 ± 4.3 s⁻¹
kcat/Km [1]: 21900 M⁻¹ s⁻¹
Km [2]: 166 ± 58 µM
kcat [2]: 0.000338 ± 3.5e-05 s⁻¹
kcat/Km [2]: 2.03 M⁻¹ s⁻¹
Km [3]: 40 ± 10 µM
kcat [3]: 5.2 ± 0.38 s⁻¹
kcat/Km [3]: 130000 M⁻¹ s⁻¹
